Here are results for 2 molecules from patent publication US20220218001A1, “REDOX ENZYMES IN ANIMAL FEED COMPOSITIONS” (Novozymes A/S, priority 2019, published 2022).

Data set [1] is described as follows: Gastric stability assay of SODs. The class given is in vitro ADME. The settings on record: 37° C., reference activity at pH7.0 without stress. Here is the method:
Gastric stability was assayed with artificial gastric juice as stress condition. 20 μl SOD with appropriate dilution was added into 180 μl stress buffer (100 mM NaCl, 0.0013M HCl at pH3.0). The stress buffer with pepsin was prepared by adding 1.11 mg/ml pepsin (from porcine gastric mucosa, P7000, Sigma, 474 U/mg). The mixture was incubated at 37° C. in thermomixer for 0, 15, 30, 45, 60, 90, and 120 minutes separately. 10 μl sample extracted from the mixture was added into 90 μl activity buffer (K2HPO4/KH2PO4 mixed with final concentration of 100 mM PBS at pH7.0) as stop mixture. Then 20 μl stop mixture was added into 200 μl WST solution (or CytoC solution at pH7.8), and finally 20 μl coupled enzyme solution from kit was added to measure absorbance. The absorbance was measured at 450 nm for Sigma SOD kit (or 550 nm at pH 7.8) for 20 minutes at 37° C. (interval 40 sec, shake before first read). The activity at pH7.0 without stress condition was set as reference, and the residual activity at stress condition (pH3.0, pH3.0+pepsin) compared with reference was calculated as relative stability.

For data set [2] the following is noted: commercial SODs from Sigma set as specific activity reference; cited from earlier work.
The nature of data set [3]: Nutritional model in piglets: growth performance (FCR). The class given is in vivo. The conditions noted are these: d 0-42, piglets, vs NC (22% CP). Here is the method: Experimental Unit: Slatted Floor Pens, 4 piglets per pen (2 barrows & 2 gilts per pen)
Feed Type: Starter (Day 0-21) and Grower (Day 21-42). MASH feed is employed, using a corn-soybean type commercial ration formulation with an increase of 5-6% crude protein compared to normal commercial rations. Test material is added to the feed beginning on Day 0 and continuing through Day 42.
Replication/piglets per treatment: Treatments 1-8 fed to 12 replicates each of 4 piglets (2 barrows+2 gilts) per replicate.
Piglet Source: Piglets (post-weaned, at 21 days of age, called Day 0) are collected in early am (day of placement or Day 0), weighed (2 barrows & 2 gilts per pen), and assigned to each experimental pen. Each piglet is weighed individually and assigned to a pen, with very high and very low body weights excluded from the study. After all piglets are assigned to a pen, the body weights are checked to ensure no treatment is more than 1 standard deviation from another treatment.

The test system of data set [4] is genes related to oxidative stress. As to the kind of experiment: Oxidative stress PCR array in duodenum and ileum of weaned piglets. The settings on record: duodenum, day 42, vs control group, p=0.019. The class given is in vivo. The protocol: The objective of this study was to evaluate anti-oxidant enzymes supplementation (SOD and CAT) alone and in combination in early weaned piglets, and if these enzymes can potentially alleviate the oxidative stress impact on weaned piglets and consequently improve the growth performance. In the in vivo trial (example 3), plasma samples were collected at day 0 (baseline, weaning moment), day 14 and day 42 of the study for additional analysis. […]
Total RNA was extracted from tissues (stored at −20° C. in RNA later) by lysing tissue with FastPrep® 24 (MP Biomedicals, Illkirch, France), using the phenol-chloroform method (TRIzol reagent; Invitrogen, Invitrogen, Cergy Pontoise, France) followed by purification using RNeasy columns by automated method with the Qiacube HT (Qiagen, Courtaboeuf, France). The concentration of RNA was measured by NanoDrop ND-1000 Spectrophotometer (Thermo Fisher Scientific, Illkirch, France) and the purity was estimated by A260/A280 ratio. RNA integrity was assessed by using the Agilent 2100 Bioanalyzer (Agilent Technologies, Basel, Switzerland). The threshold of the RNA Integrity Number (RIN) was set at 7.5 to validate sufficient quality of the RNAs. […]
(§1) ANOVA was performed for plasmatic parameters and student test was calculated to evaluate the significance of the differences observed in gene expression.

The test system of data set [5] is reactive oxygen metabolites (ROM) and Plasma antioxidant capability (PAT). The data set is described as follows: Oxidative stress index FRAS5 (d-ROM, PAT) in plasma. The format is in vivo, piglets. The conditions noted are these: piglet plasma. The protocol: An oxidative stress index was calculated as the ratio of reactive oxygen metabolites (ROM) and Plasma antioxidant capability (PAT) determined in plasma and liver lysate samples. ROM and
PAT were analyzed using commercially methods (d-ROM fast test and PAT test) on FRAS5 instrument (Innovatics Laboratory, Philadelphia, USA). For d-ROM test, 10 μL of sample was mixed with an acidic buffer. Then, a chromogen was added, and measured photometrically at 505 nm. The results are expressed in UCarr (1 UCarr=0.08 mg of H2O2/dl). For PAT test, 10 μl of sample was added in a colored solution (mix of source ferric ions and chromogen). The intensity of chromatic change was measured at 505 nm. The results are expressed in UCor (1 UCor=1.4 μM of Vitamin C equivalent). The oxidative stress index was calculated as the ratio of d-ROMs test value to PAT test value.
as §1

The subject of a further data set is Glutathione peroxidase. The data set is described as follows: Plasma GPx activity (GPx determination KIT). The class given is in vivo. The conditions noted are these: piglets, day 42. Here is the method: The concentration of total proteins was determined in liver lysate and plasma, using the Pierce™ BCA Protein Assay Kit (Thermo Fisher Scientific, Illkirch-Graffenstaden, France). The samples were processed following the supplier's recommendations. Plasma samples were diluted 100 times. 25 μL of standards or samples were added to 200 μL of working reagent and incubated 30 minutes at 37° C. The colorimetric intensity was measured at 562 nm. Results are expressed in μg of total protein per mL of sample.
The activity of the Glutathione peroxidase was determined using the GPx determination KIT (abcamab102530). Briefly, 40 μL of the colorimetric reaction mix was added to 100 μL of standards and 10 μL of cumene hydroperoxide was added to the standards and to the 50 μL of samples (Plasma samples were adjusted to bring 600 μg of total protein in the reaction). The absorbance at 340 nm was measured (A1), and after 5 min at 25° C., a second measurement was done (A2).
The GPx activity was calculated as follow:
B=NADPH amount that was decreased between T1 and T2 (in nmol).
T1=Time of the first reading (A1) (minutes).
T2=Time of second reading (A2) (minutes).
V=Pretreated sample volume added into the reaction well (mL).
D=Sample dilution factor.
as §1

For “r E. coli: commercial Sigma SOD; probably recombinant SOD bovine expressed in Escherichia coli (S9697)”, in data set [1] (15 min), the “Gastric stability: pH 3, +pepsin 15 min - residual activity value %” value is on record as 43%. The “Gastric stability: pH 3, +pepsin 30 min - residual activity value %” value in data set [1] (30 min) is reported as 43%. The “SOD specific activity (reference)” value in data set [2] is 6108 U/mg EP.

B1: CAT: catalase feed enzyme: SEQ ID NO 7 in Examples 1-2; in Example 4 probably treatment 6 (Product C, SEQ ID NO 250) (protein)
chain: MRHFWLLPAVAGIAGAQCPYLSGEMSFTQEQDNAGDTIEVTEQTIDNTLYVNDTGSYMTTDFGTPISDQYSLKAGRRGPTLLEDFIFRQKLQRFDHERVPERVVHARGAGAYGTFKSYADWSNVTAADFLSANEKETPMFCRFSTVVGFRGSVDTARDVHGHACRFYTDEGNYDIVGINFAPFFIQDAIQFPDLVHAIKPMPNNEIPQAATAHTSAWDFFSQQSTALHSALWLMSGNGIPRSFRHMNGYGVHSFRFVAANGTSKVVRYRWKSQQGVASLVWEEAQAAAGKNSDYHRQDLYNAIANGHYPKYELQAQIMDEADMLRFGFDLLDPTKLVPEEVVPYTPLGMMELNANPTNYFAEVEQAGFQPGHVVPGIDFTDDPLLQGRLFSYLDTQLTRHGGPNFEQIPVNRPRKPVHNNNRDGFGQQQIPTNNWAYTPNTMSNGYPMQANQTHGHGFFTSPYRYASGHLIREPSPTFHDHWSQPAMFWNSLIPAEQQMVVNAIVFENSKVNSPHVRKNVVNQLNMVNNNLAVRVARGLGLDEPSPNPTYYTSNKTSNVGTFGKPLLSIEGLQVGFLASNSHPESIKQGQAMAAQFSAAGVDLNIVTEAYADGVNTTYALSDAIDFDALIIADGVQSLFASPSLANQMNSTATSTLYPPARPYQILVDSFRYGKPVAAVGSGSAALKNAGIDTSRSGVYTGSSETTENIAKEVLKGLYTFRFVDRFALDE
modifications: Aspergillus niger; mat_peptide (1)..(740)
In the case of B1, the FCR entry in data set [3] is “significantly better than NC”. Further, the “GPX1 gene fold change” value in data set [4] is on record as 1.34. Besides, the “reactive oxygen metabolites (d-ROM)” value in data set [5] (both time point (day 14 and 42)) was “increase”. Also, the “plasmatic antioxidant capacity (PAT)” value in data set [5] (day 14, p<0.0001 between groups) is recorded as “increase”. In the data set with Glutathione peroxidase, the “plasma GPx activity” value is “significant increase”.
